In data set [1] the test system is ThHSF1 DBD (Trametes hirsuta AH28-2). Put plainly: FP. The conditions noted are these: 5x binding buffer pH 6.8 (25 mM HEPES, 5 mM MgCl2, 150 mM KCl, 1 mM DTT, 5% glycerol), EMSA 100 nM probe, 16 C 30 min, then 37 C 30 min, 6% native PAGE. (In EMSA bound probe runs differently from free probe, usually more slowly.)
Data set [2] deals with ThHSF1, heat shock transcription factor of Trametes hirsuta AH28-2 (full-length protein) (Trametes hirsuta AH28-2). Put plainly: ITC; iTC200, 25°C; 50 mM Tris, 500 mM NaCl, pH 7.5; 5 µM ThHspA1 titrated against 1 µM ThHSF1. (ITC needs no label: the signal is the heat of the interaction.)
The target of data set [3] is ThHspA1, Hsp70 homolog of Trametes hirsuta AH28-2 (full-length protein) (Trametes hirsuta AH28-2). Put plainly: dynamic light scattering; purified full-length ThHSF1 alone, ThHspA1 alone and the two together (Fig. S10); conditions not given.
Data set [4] has as its system ThHSF1 full-length (Trametes hirsuta AH28-2). Put plainly: FP. The settings on record: without ThHspA1, 5x binding buffer pH 6.8 (25 mM HEPES, 5 mM MgCl2, 150 mM KCl, 1 mM DTT, 5% glycerol), EMSA 100 nM probe, 16 C 30 min, then 37 C 30 min, 6% native PAGE.
Data set [5] concerns the target ThHSF1 full-length;ThHspA1 full-length (Trametes hirsuta AH28-2;Trametes hirsuta AH28-2) (UniProt A0AAD7TN48). Put plainly: FP. The conditions noted are these: ThHspA1 added, 5x binding buffer pH 6.8 (25 mM HEPES, 5 mM MgCl2, 150 mM KCl, 1 mM DTT, 5% glycerol), EMSA 100 nM probe, 16 C 30 min, then 37 C 30 min, 6% native PAGE.
The target in data set [6] is ThHSF1, heat shock transcription factor of Trametes hirsuta AH28-2 (full-length protein) (Trametes hirsuta AH28-2). Put plainly: ITC. The conditions noted are these: natural protein.

What is called Kd is the concentration at which binding is half-saturated. Usually stoichiometry N stands for a count of units in the complex or per binding partner.

Take “AGTTCAGTATGTCTTGAAGATTATGCGGTCAGAAAC (double strand) [lacB promoter probe]”: the Kd in data set [1] turned out to be 5.46 µM. In data set [2], “ThHspA1, Hsp70 homolog of Trametes hirsuta AH28-2 (full-length protein) (natural protein)” yielded a Kd of 0.105 µM. This substance had a stoichiometry N in data set [3] of 6. As to “TACGCCTTGAACTGACTTACATGCAA (double strand) [lacA promoter probe WT (26 bp)]”, the Kd was found to be 0.961 µM in data set [1], 1.03 µM in data set [4] and 0.673 µM in data set [5]. In data set [1], “TACGCCTTATACTGACTTACATGCAA (double strand) [lacA mutant probe 2]” had a Kd of 14.7 µM.

In data set [1], “TACGCCTAGAACTGACTTACATGCAA (double strand) [lacA mutant probe 4]” came in with a Kd of 5.2 µM. Regarding “ThHspA1, Hsp70 homolog of Trametes hirsuta AH28-2 (full-length protein)”, the Ka in data set [6] was 1.16e+07 M⁻¹. Take “TACGCCTTAAACTGACTTACATGCAA (double strand) [lacA mutant probe 1]”: the Kd in data set [1] amounted to 4.59 µM. For “TTCGAACGCACCGAAACCATCCCGAACTTGGTCGAA (double strand) [lacF promoter probe]”, the Kd in data set [1] came to 4.83 µM.

For the substance “TACGCCAAGAACTGACTTACATGCAA (double strand) [lacA mutant probe 5]”, in data set [1], the Kd was 11.7 µM.

Values taken from publication PMC12772356.
